Molecular target: commercially-prepared stable A-beta42 Oligomers (SynAging) (human)
Assay: SPR; antibody covalently immobilized, stable A-beta42 oligomers at 1 microM

commercially-prepared stable A-beta42 Oligomers (SynAging) (human), sequence (peptide, as listed by the source): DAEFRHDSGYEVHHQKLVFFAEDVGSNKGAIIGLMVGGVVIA

binding response units (BRU), mean: 2.5 BRU
Substance: negative control IgG1 (antibody)
